Data set [1] relates to O=CC(=O)c1ccccc1. In words: Enzyme kinetics (Lineweaver-Burk plots), Gox0644. The class given is biochemical, Gluconobacter oxydans. To be noted: other: Gox0644; substrate 0.025 to 10 mM. As to the method:
(§1) Determination of pH and temperature optima and enzyme kinetics: The optimum pH for enzyme activities was determined by a modified method of Salusjärvi, T. et al., Appl. Microbiol. Biotechnol. 65:306-314 (2004) using the following buffer system (50 mM final concentration each): sodium acetate pH 4.5 - 6.5, potassium phosphate pH 6.5 - 8.0, Tris-HCl pH 8.0 - 10. Temperature optima for the biocatalysts were determined under standard reaction conditions at temperatures ranging from 20 - 80 °C. The Michaelis constant (Km) for the proteins was determined from purified enzyme by Lineweaver-Burk plots. Assays were performed at optimum pH for each enzyme and at 30 °C using the top substrate and a targeted substrate. The Km for each substrate was calculated using concentrations of 0.0025 to 10 mM, and the Km NAD(P)H and NAD(P) was calculated using concentrations of 0.01 to 0.5 mM
(§2) The Michaelis constants were determined from purified enzyme by Lineweaver-Burk plots. The Km and Vmax values for the substrates were calculated using concentrations of 0.025 to 10 mM, The optimal pH values and temperatures for enzyme activities are also shown in Tab. 11. Tab. 11: Summary of kinetic parameters

Data set [2] has as its system CCC(=O)C(C)=O. In words: Enzyme kinetics (Lineweaver-Burk plots), Gox0644. Particulars: other: Gox0644; substrate 0.025 to 10 mM. The class given is biochemical, Gluconobacter oxydans. As to the method:
as §1, §2

The test system of data set [3] is C=CC(C)=O. In words: Enzyme kinetics (Lineweaver-Burk plots), Gox2107. The class given is biochemical, Gluconobacter oxydans. Particulars: other: Gox2107; substrate 0.025 to 10 mM. As to the method:
as §1, §2

The test system of data set [4] is O=C1C=CC(=O)c2ccccc21. In words: Enzyme kinetics (Lineweaver-Burk plots), Gox2107. Particulars: other: Gox2107; substrate 0.025 to 10 mM. The class given is biochemical, Gluconobacter oxydans. As to the method: as §1, §2
Substrate in data set [5]: CC(=O)C=O
Description: Enzyme kinetics (Lineweaver-Burk plots), Gox1615. The class given is biochemical, Gluconobacter oxydans. Particulars: other: Gox1615; substrate 0.025 to 10 mM. As to the method: as §1, §2

Substrate in data set [6]: CCCC(=O)C(C)=O
Description: Enzyme kinetics (Lineweaver-Burk plots), Gox1615. Particulars: other: Gox1615; substrate 0.025 to 10 mM. The class given is biochemical, Gluconobacter oxydans. As to the method: as §1, §2

Substrate in data set [7]: CC=O
Description: Enzyme kinetics (Lineweaver-Burk plots), Gox0313. The class given is biochemical, Gluconobacter oxydans. Particulars: other: Gox0313; substrate 0.025 to 10 mM. On the procedure: as §1, §2

Substrate in data set [8]: CCC(=O)C(C)=O
In words: Enzyme kinetics (Lineweaver-Burk plots), Gox0313. The class given is biochemical, Gluconobacter oxydans. To be noted: other: Gox0313; substrate 0.025 to 10 mM. As to the method: as §1, §2

Substrate in data set [9]: C=CC(C)=O
In words: Enzyme kinetics (Lineweaver-Burk plots), Gox2684. The class given is biochemical, Gluconobacter oxydans. To be noted: other: Gox2684; substrate 0.025 to 10 mM. On the procedure: as §1, §2

Substrate in data set [10]: CC=O
Description: Enzyme kinetics (Lineweaver-Burk plots), aldehyde dehydrogenase Gox1122. The class given is biochemical, Gluconobacter oxydans.
Description: Determination of pH and temperature optima and enzyme kinetics: The optimum pH for enzyme activities was determined by a modified method of Salusjärvi, T. et al., Appl. […] Temperature optima for the biocatalysts were determined under standard reaction conditions at temperatures ranging from 20 - 80 °C. The Michaelis constant (Km) for the proteins was determined from purified enzyme by Lineweaver-Burk plots. Assays were performed at optimum pH for each enzyme and at 30 °C using the top substrate and a targeted substrate.

Substrate in data set [11]: NC(=O)c1ccc[n+]([C@@H]2O[C@H](COP(=O)(O)OP(=O)(O)OC[C@H]3O[C@@H](n4cnc5c(N)ncnc54)[C@H](OP(=O)(O)O)[C@@H]3O)[C@@H](O)[C@H]2O)c1
In words: purified protein, by the assay type. To be noted: other: Gox1122; for the cofactor NADP.

Substrate in data set [12]: C=CC(C)=O
Description: purified protein, by the assay type. Particulars: other: Gox0502; substrate 0.025 to 10 mM.

Where [13] appears, read: other: Gox1122, aldehyde concentrations from 0.0025 to 10 mM.
Where [14] appears, read: other: Tab. 11, Gox1122, substrate 0.025 to 10 mM.

With Gox0644 (Gluconobacter oxydans 621H), in [1], the Michaelis constant (Km) stood at 4.7 mM and the Vmax was found to be 93.0 µmol/min/mg. In data set [2], the Michaelis-Menten constant (Km) worked out at 5.6 mM and the Vmax was 79.0 µmol/min/mg.
Consider Gox2107 (Gluconobacter oxydans 621H), for which, in data set [3], the Km amounted to 3.8 mM and the Vmax was 119 µmol/min/mg. Besides, in data set [4], the Km is on record as 0.01 mM and the Vmax is listed as 217 U/mg protein.

B1: Gox1615 (Gluconobacter oxydans 621H) (protein)
chain: MASDTIRIPGIDTPLSRVALGTWAIGGWMWGGPDDDNGVRTIHAALDEGINLIDTAPVYGFGHSEEIVGRALAEKPNKAHVATKLGLHWVGEDEKNMKVFRDSRPARIRKEVEDSLRRLRVETIDLEQIHWPDDKTPIDESARELQKLHQDGKIRALGVSNFSPEQMDIFREVAPLATIQPPLNLFERTIEKDILPYAEKHNAVVLAYGALCRGLLTGKMNRDTTFPKDDLRSNDPKFQKPNFEKYLAAMDEFEKLAEKRGKSVMAFAVRWVLDQGPVIALWGARKPGQVSGVKDVFGWSLTDEEKKAVDDILARHVPNPIDPTFMAPPARD
B1: the Km was determined as 3.8 mM in data set [5] and 3.2 mM in data set [6]. Further, the Vmax in [5] came out at 22.0 µmol/min/mg; in [6], 6.0 µmol/min/mg.

B2: Gox0313 (Gluconobacter oxydans 621H) (protein)
chain: MADTMLAAVVREFGKPLSIERLPIPDIKPHQILVKVDTCGVCHTDLHAARGDWPSKPNPPFIPGHEGVGHIVAVGSQVGDFVKTGDVVGVPWLYSACGHCEHCLGGWETLCEKQDDTGYTVNGCFAEYVVADPNYVAHLPSTIDPLQASPVLCAGLTVYKGLKMTEARPGQWVAVSGVGGLGQMAVQYAVAMGMNVVAVDIDDEKLATAKKLGASLTVNAKDTDPARFIQQQIGGAHGALVTAVGRTAFSQAMGYARRGGTIVLNGLPPGDFPVSIFDMVMNGTTIRGSIVGTRLDMIEAMDFFARGKVKSVVTPGKLENINTIFDDLQNGRLEGRTVLDFRS
In the case of B2, in data set [7], the Km is given as 0.5 mM and the Vmax was found to be 95 U/mg protein. In addition, in data set [8], the Km turned out to be 3.1 mM and the Vmax amounted to 97 U/mg protein.

B3: Gox2684 (Gluconobacter oxydans 621H) (protein)
chain: MTSLFEPIELGSIYAKNRILMAPLTRGRGTRDHVPTPIMAEYYAQRAGAGLIISEATGISREGLGWPYAPGLWSQEQVEAWKPITAAVHAKGGKIVAQLWHMGRMVHSSVTGQQPVSCSATKAPEALHTYDGKQAPEVARPLTKEDIARILNDYENAARNALQAGFDGVQIHAANGYLIDEFLRDGTNHRSDEYGGSPENRIRFLREVTERVIATIGAHKTSVRLSPNGDTVGCIDSHPEQVFVPAAKLLNDLDIAFLELREPGPNGTFGKTDQPKLHGPIREVFRKPLVLNQDYTREEAIETVATGVADAISFGRPFLANPDLVRRLEDNLPQNKDDIRTWYSQGAEGYTDYPLAR
For B3, in [9], the Km turned out to be 0.3 mM and the Vmax was determined as 11.3 µmol/min/mg.

B4: Gox1122 (Gluconobacter oxydans 621H) (protein)
chain: MAYATINPYTGETLKTFPEATDQEVQTALTEAYDAFKSWRHTPFAERAKIMTAAANILRRDIDKYSKLLTLEMGKIYAEAKAETILSAEIFEYYAKNAEELLKAEKLPVADPKEGEAVLIHQPQGIVFAIEPWNFPFYQIARIIAPQLSAGNTVILKHASNVPQCAAAFDDLMKEAGLPKGGFRNLYAARHHTETILKDPRVCGVALTGSEGAGAVVAGIAAQALKKSTMELGGSDAFLVLDDADLEKTAKWAAFGRHWNAGQVCVSAKRLIVADAVYDRFVELYKAEVAKLIPGDPMDPKTTLAPLSSQKAADDLKAQVEEAKKHGAVVEAIGPSVPEKGAFFQPLLMTNLHENNEARLWEFFGPVTQLYRAKDDADAIRIANDSPFGLGGSVFTKDTQRGVKVAEQIYTGMVYINHPTMVKADLPFGGVARSGYGRELIGLGIKEFVNHKLIDVVDIDAPF
With B4, the Michaelis-Menten constant (Km) in data set [10] (setting [13]) was 255 µM; in [10] (setting [14]) it was 200 µM; in [11], 73 µM. Moreover, the values for the Vmax in data set [10] (setting [13]) and in data set [10] (setting [14]) were 196 U/mg protein and 196 µmol/min/mg, respectively.

B5: Gox0502 (Gluconobacter oxydans 621H) (protein)
chain: MPTLFDPIDFGPIHAKNRIVMSPLTRGRADKEAVPTPIMAEYYAQRASAGLIITEATGISREGLGWPFAPGIWSDAQVEAWKPIVAGVHAKGGKIVCQLWHMGRMVHSSVTGTQPVSSSATTAPGEVHTYEGKKPFEQARAIDAADISRILNDYENAARNAIRAGFDGVQIHAANGYLIDEFLRNGTNHRTDEYGGVPENRIRFLKEVTERVIAAIGADRTGVRLSPNGDTQGCIDSAPETVFVPAAKLLQDLGVAWLELREPGPNGTFGKTDQPKLSPQIRKVFLRPLVLNQDYTFEAAQTALAEGKADAIAFGRKFISNPDLPERFARGIALQPDDMKTWYSQGPEGYTDYPSATSGPN
On to B5, for which, in data set [12], the Km came out at 0.1 mM and the Vmax stood at 21.0 µmol/min/mg.

Broadly, the Km is the substrate concentration at which the rate is half of its maximum.

Source of the values: patent publication EP2119770B1, “Production of alpha-oxyfunctionalized carbonyl compounds” (priority 2008, dated 2009).
